According to publication PMC5618700:

Molecular target: the molecule itself
Assay: SDS-PAGE without reducing agent (oligomerization assay) with Western blot; PLY 0.4 uM in solution without cholesterol or membranes, incubated 1 hr at 37°C with 0, 2.18, 4.36 or 8.73 uM EGCG (control with DMSO only); 5x loading buffer without β-ME, 10 min at 50°C; 6% SDS-PAGE, Western blot; oligomerization reduced by EGCG in a concentration-dependent manner

B1: Pneumolysin (PLY), wild type, His-tagged (natural protein, Streptococcus pneumoniae D39, UniProt Q04IN8 1-471, looked up)
chain: MANKAVNDFILAMNYDKKKLLTHQGESIENRFIKEGNQLPDEFVVIERKKRSLSTNTSDISVTATNDSRLYPGALLVVDETLLENNPTLLAVDRAPMTYSIDLPGLASSDSFLQVEDPSNSSVRGAVNDLLAKWHQDYGQVNNVPARMQYEKITAHSMEQLKVKFGSDFEKTGNSLDIDFNSVHSGEKQIQIVNFKQIYYTVSVDAVKNPGDVFQDTVTVEDLKQRGISAERPLVYISSVAYGRQVYLKLETTSKSDEVEAAFEALIKGVKVAPQTEWKQILDNTEVKAVILGGDPSSGARVVTGKVDMVEDLIQEGSRFTADHPGLPISYTTSFLRDNVVATFQNSTDYVETKVTAYRNGDLLLDHSGAYVAQYYITWDELSYDHQGKEVLTPKAWDRNGQDLTAHFTTSIPLKGNVRNLSVKIRECTGLAWEWWRTVYEKTDLPLVRKRTISIWGTTLYPQVEDKVEND
notes: no cleavage of the tag is described; also called PLY-WT
B1: binds.
